1 molecule from article PMC4757827 (2016) can be followed below.

The assay addresses recombinant importin α1 (construct not stated for this experiment) (Homo sapiens (Human), UniProt P52292). Description: ELISA.

B1: IFN-γ (recombinant) (protein)
chain: QDPYVKEAENLKKYFNAGHSDVADNGTLFLGILKNWKEESDRKIMQSQIVSFYFKLFKNFKDDQSIQKSVETIKEDMNVKFFNSNKKKRDDFEKLTNYSVTDLNVQRKAIHELIQVMAELSPAAKTGKRKRSQMLFRG
As to B1, the binding result is recorded as “no binding”.
